Measurements: IntAct's records for PubMed 19536132

B1: Conserved oligomeric Golgi complex subunit 4 (Homo sapiens), Q9H9E3 (parent)
chain: MADLDSPPKLSGVQQPSEGVGGGRCSEISAELIRSLTELQELEAVYERLCGEEKVVERELDALLEQQNTIESKMVTLHRMGPNLQLIEGDAKQLAGMITFTCNLAENVSSKVRQLDLAKNRLYQAIQRADDILDLKFCMDGVQTALRSEDYEQAAAHTHRYLCLDKSVIELSRQGKEGSMIDANLKLLQEAEQRLKAIVAEKFAIATKEGDLPQVERFFKIFPLLGLHEEGLRKFSEYLCKQVASKAEENLLMVLGTDMSDRRAAVIFADTLTLLFEGIARIVETHQPIVETYYGPGRLYTLIKYLQVECDRQVEKVVDKFIKQRDYHQQFRHVQNNLMRNSTTEKIEPRELDPILTEVTLMNARSELYLRFLKKRISSDFEVGDSMASEEVKQEHQKCLDKLLNNCLLSCTMQELIGLYVTMEEYFMRETVNKAVALDTYEKGQLTSSMVDDVFYIVKKCIGRALSSSSIDCLCAMINLATTELESDFRDVLCNKLRMGFPATTFQDIQRGVTSAVNIMHSSLQQGKFDTKGIESTDEAKMSFLVTLNNVEVCSENISTLKKTLESDCTKLFSQGIGGEQAQAKFDSCLSDLAAVSNKFRDLLQEGLTELNSTAIKPQVQPWINSFFSVSHNIEEEEFNDYEANDPWVQQFILNLEQQMAEFKASLSPVIYDSLTGLMTSLVAVELEKVVLKSTFNRLGGLQFDKELRSLIAYLTTVTTWTIRDKFARLSQMATILNLERVTEILDYWGPNSGPLTWRLTPAEVRQVLALRIDFRSEDIKRLRL

Variants of: B1
Conditions: with scfd1_human SCFD1, Q8WVM8
Chain of scfd1_human SCFD1, Q8WVM8 (Q8WVM8 whole entry, looked up): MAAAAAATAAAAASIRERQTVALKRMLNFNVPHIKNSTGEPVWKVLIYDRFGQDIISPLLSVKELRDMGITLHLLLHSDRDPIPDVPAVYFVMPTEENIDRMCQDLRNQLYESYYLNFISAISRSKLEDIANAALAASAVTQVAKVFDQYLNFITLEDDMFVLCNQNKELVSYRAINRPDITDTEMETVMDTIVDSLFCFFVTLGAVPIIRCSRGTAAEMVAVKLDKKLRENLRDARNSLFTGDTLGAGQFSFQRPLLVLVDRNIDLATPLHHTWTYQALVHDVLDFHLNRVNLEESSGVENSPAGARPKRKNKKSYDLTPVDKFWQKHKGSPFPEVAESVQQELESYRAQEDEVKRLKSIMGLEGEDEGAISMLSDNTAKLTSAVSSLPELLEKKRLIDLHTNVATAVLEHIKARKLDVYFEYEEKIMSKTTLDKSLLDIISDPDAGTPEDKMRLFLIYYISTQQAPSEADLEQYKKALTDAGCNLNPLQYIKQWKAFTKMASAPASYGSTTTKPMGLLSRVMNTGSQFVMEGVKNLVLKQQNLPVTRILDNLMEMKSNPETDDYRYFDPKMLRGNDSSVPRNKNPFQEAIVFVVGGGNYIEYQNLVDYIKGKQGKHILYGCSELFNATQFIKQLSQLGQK

Row | Variant | effect of a mutation on the interaction
1 | E53A | decreasing interaction

Variants of: B1
Conditions: with scfd1_human SCFD1, Q8WVM8
Remark: another data set of the same source

Row | Variant | effect of a mutation on the interaction
2 | E53A | disrupting interaction
3 | E71A | disrupting interaction
